# Measured values published in patent publication US20080279864A1.
# Where two headings read alike, the source gives them in different places.
# Tests used:
# I-IIC-CFP (rabbit) = I-IIC-CFP (rabbit) (UniProt P15381); assay: FRET two-hybrid, relative dissociation constant against the NTB-CFP/I-IIB-YFP pair
# I-IIC-YFP (rabbit) = I-IIC-YFP (rabbit) (UniProt P15381); assay: as above
# [1] = target: N-type (CaV2.2) Ca2+ channel (α1B with β2a and α2δ) in HEK293 cells (human; rat) (UniProt Q00975); assay: cell-based or functional assay
# I-IIB-YFP (human) [2] = target: I-IIB-YFP (human) (UniProt Q00975); assay: FRET two-hybrid, relative dissociation constant against the NTB-CFP/I-IIB-YFP pair
# I-IIB-YFP (human) [3] = target: I-IIB-YFP (human) (UniProt Q00975); assay: as above; remark: listed apart in the source
# NTB(1-44)-pGBKT7 (human) [4] = assay: yeast two-hybrid auto-activation control (empty pGADT7), filter lift β-galactosidase assay, % of colonies turning blue, mean ± SEM
# [5] = target: I-IIB(357-482)-pGBKT7 (I-II loop of α1B fused to the GAL4 binding domain) (human); assay: as above
# [6] = target: NTB(56-95)-pGBKT7 (human); assay: as above
# NTB(1-44)-pGBKT7 (human) [7] = assay: yeast two-hybrid auto-activation control (empty pGADT7), % of colonies surviving on high stringency plates, mean ± SEM
# [8] = target: I-IIB(357-482)-pGBKT7 (I-II loop of α1B fused to the GAL4 binding domain) (human); assay: as above
# [9] = target: I-IIC(436-554)-pGBKT7 (I-II loop of α1C fused to the GAL4 binding domain) (rabbit); assay: as above
# [10] = target: NTB(56-95)-pGBKT7 (human); assay: as above
# N-type (CaV2.2) Ca2+ channel (α1B with β2a and α2δ) in HEK293 cells (human; rat), sequence (Q00975 whole entry, stated change not applied, chain 1 of 3, other chains not shown): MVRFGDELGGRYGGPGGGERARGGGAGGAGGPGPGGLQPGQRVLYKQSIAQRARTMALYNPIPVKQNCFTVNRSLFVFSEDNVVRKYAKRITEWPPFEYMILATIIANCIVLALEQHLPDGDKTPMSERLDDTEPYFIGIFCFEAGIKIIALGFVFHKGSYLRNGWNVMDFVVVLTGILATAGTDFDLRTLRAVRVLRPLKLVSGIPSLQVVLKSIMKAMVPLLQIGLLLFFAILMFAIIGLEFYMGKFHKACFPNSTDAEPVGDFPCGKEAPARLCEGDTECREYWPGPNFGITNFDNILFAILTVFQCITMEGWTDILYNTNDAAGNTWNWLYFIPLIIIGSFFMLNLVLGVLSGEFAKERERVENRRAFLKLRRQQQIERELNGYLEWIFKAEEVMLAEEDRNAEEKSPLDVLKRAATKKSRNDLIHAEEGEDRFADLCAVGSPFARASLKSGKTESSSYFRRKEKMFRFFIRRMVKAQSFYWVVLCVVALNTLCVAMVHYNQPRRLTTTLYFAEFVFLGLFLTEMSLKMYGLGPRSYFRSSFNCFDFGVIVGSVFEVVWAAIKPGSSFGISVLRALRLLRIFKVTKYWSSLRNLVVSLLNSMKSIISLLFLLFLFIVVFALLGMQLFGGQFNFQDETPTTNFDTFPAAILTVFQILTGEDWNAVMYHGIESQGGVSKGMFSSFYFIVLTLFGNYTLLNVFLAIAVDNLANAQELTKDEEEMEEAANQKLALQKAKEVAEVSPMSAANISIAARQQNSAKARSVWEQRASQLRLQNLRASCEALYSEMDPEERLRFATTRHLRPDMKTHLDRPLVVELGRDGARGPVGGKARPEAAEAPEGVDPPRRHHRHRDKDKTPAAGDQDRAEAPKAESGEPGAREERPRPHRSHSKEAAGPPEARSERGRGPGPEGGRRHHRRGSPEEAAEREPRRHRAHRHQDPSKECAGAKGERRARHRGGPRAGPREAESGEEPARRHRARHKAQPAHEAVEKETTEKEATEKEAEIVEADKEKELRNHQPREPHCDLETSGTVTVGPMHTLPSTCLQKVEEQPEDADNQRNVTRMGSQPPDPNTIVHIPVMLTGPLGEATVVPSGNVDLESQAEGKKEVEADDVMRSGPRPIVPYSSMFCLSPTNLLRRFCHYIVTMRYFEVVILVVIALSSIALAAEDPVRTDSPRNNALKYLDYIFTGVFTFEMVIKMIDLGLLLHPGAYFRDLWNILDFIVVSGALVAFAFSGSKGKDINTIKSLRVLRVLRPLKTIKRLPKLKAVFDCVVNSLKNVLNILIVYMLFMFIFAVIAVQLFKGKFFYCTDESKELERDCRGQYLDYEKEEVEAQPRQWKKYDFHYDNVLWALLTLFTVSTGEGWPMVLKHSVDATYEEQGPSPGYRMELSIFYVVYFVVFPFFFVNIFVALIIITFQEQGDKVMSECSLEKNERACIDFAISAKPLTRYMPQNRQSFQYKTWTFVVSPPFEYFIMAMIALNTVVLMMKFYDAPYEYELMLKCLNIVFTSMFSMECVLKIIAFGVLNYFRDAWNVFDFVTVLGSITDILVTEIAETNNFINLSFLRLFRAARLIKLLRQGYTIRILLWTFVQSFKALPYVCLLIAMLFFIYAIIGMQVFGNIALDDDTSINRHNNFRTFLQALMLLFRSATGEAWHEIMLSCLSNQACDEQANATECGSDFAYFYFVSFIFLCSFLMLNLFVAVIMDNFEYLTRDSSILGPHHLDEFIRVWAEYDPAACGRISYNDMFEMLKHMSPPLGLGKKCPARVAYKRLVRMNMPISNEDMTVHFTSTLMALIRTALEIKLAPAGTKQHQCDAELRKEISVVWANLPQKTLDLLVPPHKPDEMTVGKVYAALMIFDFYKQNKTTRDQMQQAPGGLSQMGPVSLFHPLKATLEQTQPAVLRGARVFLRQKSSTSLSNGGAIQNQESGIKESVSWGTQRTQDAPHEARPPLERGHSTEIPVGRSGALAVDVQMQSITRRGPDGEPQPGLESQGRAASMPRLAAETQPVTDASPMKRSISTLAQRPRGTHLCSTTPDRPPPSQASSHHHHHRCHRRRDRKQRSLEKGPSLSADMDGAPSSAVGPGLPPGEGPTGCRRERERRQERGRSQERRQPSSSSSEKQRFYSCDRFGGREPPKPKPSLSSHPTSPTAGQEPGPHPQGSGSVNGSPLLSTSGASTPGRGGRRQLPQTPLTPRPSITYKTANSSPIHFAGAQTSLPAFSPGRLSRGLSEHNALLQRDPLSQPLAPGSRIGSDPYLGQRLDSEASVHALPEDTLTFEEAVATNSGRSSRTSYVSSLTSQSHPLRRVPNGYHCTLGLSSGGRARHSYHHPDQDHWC
# N-type (CaV2.2) Ca2+ channel (α1B with β2a and α2δ) in HEK293 cells (human; rat), sequence (P54290 25-1091, stated change not applied, chain 3 of 3, other chains not shown, further chain): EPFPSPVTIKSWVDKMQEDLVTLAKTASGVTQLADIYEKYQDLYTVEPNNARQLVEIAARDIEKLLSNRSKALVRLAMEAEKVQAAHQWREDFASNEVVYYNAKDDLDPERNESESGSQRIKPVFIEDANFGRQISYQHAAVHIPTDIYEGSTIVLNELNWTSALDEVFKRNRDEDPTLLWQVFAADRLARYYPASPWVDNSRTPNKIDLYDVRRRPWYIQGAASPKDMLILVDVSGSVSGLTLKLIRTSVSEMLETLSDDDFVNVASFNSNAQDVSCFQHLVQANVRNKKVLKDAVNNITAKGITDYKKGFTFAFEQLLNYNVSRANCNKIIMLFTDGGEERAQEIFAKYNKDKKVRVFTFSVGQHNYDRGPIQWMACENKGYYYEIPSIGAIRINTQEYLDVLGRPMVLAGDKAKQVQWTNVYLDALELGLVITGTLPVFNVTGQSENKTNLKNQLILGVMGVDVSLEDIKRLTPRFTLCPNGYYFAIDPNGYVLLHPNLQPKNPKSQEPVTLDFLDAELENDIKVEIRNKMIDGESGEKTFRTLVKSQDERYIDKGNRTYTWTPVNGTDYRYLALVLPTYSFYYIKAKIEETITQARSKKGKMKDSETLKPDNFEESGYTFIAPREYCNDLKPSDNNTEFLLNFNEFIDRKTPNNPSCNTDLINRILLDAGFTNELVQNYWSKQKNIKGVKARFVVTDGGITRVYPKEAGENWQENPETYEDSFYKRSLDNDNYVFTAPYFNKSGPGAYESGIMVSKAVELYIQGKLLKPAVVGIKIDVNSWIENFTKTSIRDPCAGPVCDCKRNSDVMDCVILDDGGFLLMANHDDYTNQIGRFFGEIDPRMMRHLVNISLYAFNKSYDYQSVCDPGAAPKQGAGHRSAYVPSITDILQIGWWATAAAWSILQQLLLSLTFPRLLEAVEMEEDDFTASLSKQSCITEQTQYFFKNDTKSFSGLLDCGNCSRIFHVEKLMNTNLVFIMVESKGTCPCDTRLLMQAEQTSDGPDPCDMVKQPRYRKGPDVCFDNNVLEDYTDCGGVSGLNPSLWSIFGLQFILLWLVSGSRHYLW
# I-IIB-YFP (human), sequence (Q00975 357-482): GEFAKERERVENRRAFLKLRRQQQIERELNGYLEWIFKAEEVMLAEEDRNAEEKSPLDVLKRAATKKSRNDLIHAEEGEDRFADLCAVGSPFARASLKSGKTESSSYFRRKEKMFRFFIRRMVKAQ
# I-IIC-CFP (rabbit), sequence (P15381 436-554): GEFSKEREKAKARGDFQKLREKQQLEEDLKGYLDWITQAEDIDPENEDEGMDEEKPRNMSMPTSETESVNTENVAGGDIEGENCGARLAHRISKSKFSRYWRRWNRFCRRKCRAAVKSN
# I-IIC-YFP (rabbit), sequence (P15381 436-554): as above
substance,measurement,setting,value
NTC-YFP (from UniProt P15381 1-53),"Kd,EFF relative to NTB/I-IIB",I-IIC-CFP (rabbit),> 10 fold
NTB-CFP (from UniProt Q00975 1-95),"Kd,EFF relative to NTB/I-IIB",I-IIC-YFP (rabbit),> 10 fold
Gβγ (G protein β1 and γ2 subunits coexpressed) (from UniProt P62871 2-340; P63212 2-68),"W(∞), fraction of channels residing in the willing configuration at steady state, 0 mV (compound-state analysis)",[1],0.6
same,"τ, time-constant with which the steady state is achieved, 0 mV (compound-state analysis)",[1],60 ms
NTC-CFP (from UniProt P15381 1-53),"Kd,EFF relative to NTB/I-IIB",I-IIB-YFP (human) [2],8 fold
same,"Kd,EFF relative to NTB/I-IIB",I-IIB-YFP (human) [3],> 10 fold
pGADT7 (empty vector; the isolated GAL4 activating domain itself) (from UniProt P04386 768-881),Filter Lift Assay (%),NTB(1-44)-pGBKT7 (human) [4],47.9%
same,Filter Lift Assay (%),[5],9.18%
same,Filter Lift Assay (%),[6],32.2%
same,High Stringency (%),NTB(1-44)-pGBKT7 (human) [7],0.98%
same,High Stringency (%),[8],18.7%
same,High Stringency (%),[9],8.44%
same,High Stringency (%),[10],2.11%
